Experiment [1] has as its target FcγRI and FcγRII on THP-1 cells. The experiment can be described thus: flow cytometry, antibody on THP-1 cells, FITC anti-human IgG Fab. (Flow cytometry measures light scatter and fluorescence of single cells or particles in a stream.)
For experiment [2], the target named is human C1q (Quidel) (human) (UniProt P02745). Description: ELISA: antibody captured on protein A/G, human C1q 2 ug/ml, anti-C1q detection. (In general: ELISA stands for enzyme-linked immunosorbent assay.)
Experiment [3] has as its target FcγRIIIA-streptavidin fusion protein (human; Streptomyces avidinii) (UniProt P08637). Description: ELISA: antibody captured on protein A/G, FcγRIIIA-streptavidin (1:1000), biotin-HRP; the text speaks of IC50 values.

Sequence of FcγRIIIA-streptavidin fusion protein (human; Streptomyces avidinii) (P08637 17-208 limits assumed): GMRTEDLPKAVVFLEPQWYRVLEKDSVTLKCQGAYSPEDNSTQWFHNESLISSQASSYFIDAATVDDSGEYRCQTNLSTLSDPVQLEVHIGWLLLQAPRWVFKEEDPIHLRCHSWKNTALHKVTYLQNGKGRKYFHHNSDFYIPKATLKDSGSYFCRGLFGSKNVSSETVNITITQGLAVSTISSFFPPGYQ
Sequence of human C1q (Quidel) (human) (P02745 23-245, chain 1 of 3): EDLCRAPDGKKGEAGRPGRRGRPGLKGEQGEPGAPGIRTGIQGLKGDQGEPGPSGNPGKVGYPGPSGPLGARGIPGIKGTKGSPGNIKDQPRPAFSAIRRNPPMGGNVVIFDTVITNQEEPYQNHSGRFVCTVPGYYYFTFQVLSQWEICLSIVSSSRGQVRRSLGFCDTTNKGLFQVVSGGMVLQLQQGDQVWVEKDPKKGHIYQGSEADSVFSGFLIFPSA
Sequence of human C1q (Quidel) (human) (P02746 28-253, chain 2 of 3, further chain): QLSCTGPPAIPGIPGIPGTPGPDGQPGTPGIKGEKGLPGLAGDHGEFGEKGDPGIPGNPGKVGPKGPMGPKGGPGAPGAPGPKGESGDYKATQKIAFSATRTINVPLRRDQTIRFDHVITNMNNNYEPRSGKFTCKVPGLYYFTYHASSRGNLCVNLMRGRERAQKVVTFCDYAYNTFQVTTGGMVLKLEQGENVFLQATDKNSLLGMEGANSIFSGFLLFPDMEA
Sequence of human C1q (Quidel) (human) (P02747 29-245, chain 3 of 3, further chain): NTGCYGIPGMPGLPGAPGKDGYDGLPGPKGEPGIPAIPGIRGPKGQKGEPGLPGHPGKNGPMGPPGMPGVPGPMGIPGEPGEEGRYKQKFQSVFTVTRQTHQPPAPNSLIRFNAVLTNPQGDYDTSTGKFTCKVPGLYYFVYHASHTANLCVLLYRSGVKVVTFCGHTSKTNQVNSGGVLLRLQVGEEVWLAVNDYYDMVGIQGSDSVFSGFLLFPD

With “12G3H11 anti-EphA2 antibody Fc variant K246R/L251E/T260R (soluble)”, in experiment [1], the FcγRI&II Binding (fold less, against wild type) stood at 9 fold. For the same substance, in experiment [2], the C1q binding (fold less, against wild type) was found to be 2 fold. “12G3H11 anti-EphA2 antibody Fc variant InE240/241 (soluble) (from UniProt P01857 1-330)”: in experiment [3], the FcγRIIIA Binding came out at 4.93 µg/mL. The same measure, in the same setting: then “12G3H11 anti-EphA2 antibody Fc variant W277T (soluble)”, with 0.5 µg/mL.

These data come from US20070111260A1.
